Test results taken from IntAct's records for PubMed 21785459.

B1: Parkinson disease protein 7 (Homo sapiens), Q99497 (parent)
chain: MASKRALVILAKGAEEMETVIPVDVMRRAGIKVTVAGLAGKDPVQCSRDVVICPDASLEDAKKEGPYDVVVLPGGNLGAQNLSESAAVKEILKEQENRKGLIAAICAGPTALLAHEIGFGSKVTTHPLAKDKMMNGGHYTYSENRVEKDGLILTSRGPGTSFEFALAIVEALNGKEVAAQVKAPLVLKD

Variants of: B1
Settings: with fadd_human FADD

Row | Variant | effect of a mutation on the interaction
1 | MASKRALVILAKGAEEMETVIPVDVMRRAGIKVTVAGLAGKDPVQCSRDVVICPDASLEDAKKEGPYDVVVLPGGNLGAQNLSESAAVKEILKEQENRKGLIAAICAGPTALLAHEIGFGSKVTTHPLAKDKMMNGGHYTYSENRVEKDGLILTSRGPGTSFEFAAAIVEALNGKEVAAQVKAPLVLKD [L166A] | decreasing interaction

Variants of: B1
Settings: with fadd_human FADD
Remark: another data set of the same source

Row | Variant | effect of a mutation on the interaction
2 | MASKRALVILAKGAEEMETVIPVDVMRRAGIKVTVAGLAGKDPVQCSRDVVICPDASLEDAKKEGPYDVVVLPGGNLGAQNLSESAAVKEILKEQENRKGLIAAICAGPTALLAHEIGFGSKVTTHPLAKDKMMNGGHYTYSENRVEKDGLILTSRGPGTSFEFAPAIVEALNGKEVAAQVKAPLVLKD [L166P] | disrupting interaction
